Reference: US20260275311, “CRISPR NUCLEASE POLYPEPTIDES AND GENE EDITING SYSTEMS COMPRISING SUCH” (ARBOR BIOTECHNOLOGIES, INC., published 2026)

Legend:
[1] = target: T1, Nuclease A I67R/D568R/E706R; experiment: cell_activity; PAM NGG (GGG); HEK293T; settings: tags: N-terminal SV40 NLS, C-terminal XTEN linker + nucleoplasmin NLS
T1 chain: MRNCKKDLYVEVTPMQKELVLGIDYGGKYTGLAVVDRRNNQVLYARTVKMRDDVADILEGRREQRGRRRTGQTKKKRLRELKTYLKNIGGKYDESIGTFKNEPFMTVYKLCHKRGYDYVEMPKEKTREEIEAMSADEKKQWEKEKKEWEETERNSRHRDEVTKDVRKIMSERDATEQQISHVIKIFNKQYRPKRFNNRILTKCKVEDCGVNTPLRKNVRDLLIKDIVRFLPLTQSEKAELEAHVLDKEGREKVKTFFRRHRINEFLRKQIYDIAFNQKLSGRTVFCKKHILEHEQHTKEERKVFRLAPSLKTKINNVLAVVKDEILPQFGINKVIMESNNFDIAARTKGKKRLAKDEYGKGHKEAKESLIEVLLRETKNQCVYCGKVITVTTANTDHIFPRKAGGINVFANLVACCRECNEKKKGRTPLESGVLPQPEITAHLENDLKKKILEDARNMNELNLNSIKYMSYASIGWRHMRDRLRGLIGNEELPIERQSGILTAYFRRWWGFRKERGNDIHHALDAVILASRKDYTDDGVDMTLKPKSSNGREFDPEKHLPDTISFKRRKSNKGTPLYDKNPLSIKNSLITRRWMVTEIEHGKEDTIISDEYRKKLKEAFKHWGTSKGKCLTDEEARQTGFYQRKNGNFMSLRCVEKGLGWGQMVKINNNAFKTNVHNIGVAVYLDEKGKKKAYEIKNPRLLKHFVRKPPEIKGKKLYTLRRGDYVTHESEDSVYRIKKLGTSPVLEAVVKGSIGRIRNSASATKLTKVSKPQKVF
Method: (§1) Approximately 16 hours prior to transfection, 25,000 HEK293T cells in DMEM/10% FBS+Pen/Strep (D10 media) were plated into each well of a 96-well plate. On the day of transfection, the cells were 50-90% confluent. For each well to be transfected, a mixture of Lipofectamine 2000™ (ThermoFisher Scientific) and Opti-MEM™ (ThermoFisher Scientific) was prepared and incubated at room temperature for 5 minutes (Solution 1). After incubation, the Lipofectamine 2000™: Opti-MEM™ mixture was added to a separate mixture containing the CRISPR nuclease plasmid (NLS-tagged), RNA guide plasmid, and Opti-MEM™ (Solution 2). In the case of negative controls, the CRISPR nuclease plasmid was excluded. Solutions 1 and 2 were mixed by pipetting up and down, then incubated at room temperature for 25 minutes. Following incubation, the Solution 1 and 2 mixture was added dropwise to each well of a 96-well plate containing the cells. […]
(§2) Each Nuclease A variant and RNA guide (see Table 5) was cloned as described in Example 2. […] For each target, indel ratios, referring to the percentage of NGS reads comprising indels, were calculated for Nuclease A (SEQ ID NO: 1) and for each variant of Nuclease A. The indel ratios shown in Table 6 were calculated as the average of two bioreplicates, each of which contained two technical replicates.

Nuclease A = target: T2, Nuclease A; experiment: cell_activity; PAM NGG (GGG); HEK293T; settings: tags: N-terminal SV40 NLS, C-terminal XTEN linker + nucleoplasmin NLS
T2 chain: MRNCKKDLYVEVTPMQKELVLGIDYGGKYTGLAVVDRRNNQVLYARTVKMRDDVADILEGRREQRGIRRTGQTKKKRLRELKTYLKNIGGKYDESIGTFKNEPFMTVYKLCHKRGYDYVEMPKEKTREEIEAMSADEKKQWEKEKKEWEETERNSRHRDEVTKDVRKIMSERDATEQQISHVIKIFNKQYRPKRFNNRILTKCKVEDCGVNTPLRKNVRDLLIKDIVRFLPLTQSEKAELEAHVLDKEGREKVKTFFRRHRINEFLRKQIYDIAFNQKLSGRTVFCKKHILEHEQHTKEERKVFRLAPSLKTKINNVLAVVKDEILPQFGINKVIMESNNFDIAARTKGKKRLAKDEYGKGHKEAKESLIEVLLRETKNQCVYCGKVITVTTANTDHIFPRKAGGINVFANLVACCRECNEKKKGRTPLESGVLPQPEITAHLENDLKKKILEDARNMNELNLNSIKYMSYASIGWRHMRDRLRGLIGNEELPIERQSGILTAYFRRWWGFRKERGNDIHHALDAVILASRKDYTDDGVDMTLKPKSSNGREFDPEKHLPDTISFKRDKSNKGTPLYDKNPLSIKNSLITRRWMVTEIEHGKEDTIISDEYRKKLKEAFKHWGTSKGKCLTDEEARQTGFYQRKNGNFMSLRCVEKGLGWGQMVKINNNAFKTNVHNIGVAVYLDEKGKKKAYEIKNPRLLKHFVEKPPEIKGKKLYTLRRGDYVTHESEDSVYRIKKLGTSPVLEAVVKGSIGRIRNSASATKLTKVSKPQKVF
Method: as §1, §2

[2] = target: T3, Nuclease K D582R/I53R/T734R (D582R,I53R,T734R); experiment: cell_activity; PAM NGG; HEK293T; settings: tags: N- and C-terminal NLS
T3 chain: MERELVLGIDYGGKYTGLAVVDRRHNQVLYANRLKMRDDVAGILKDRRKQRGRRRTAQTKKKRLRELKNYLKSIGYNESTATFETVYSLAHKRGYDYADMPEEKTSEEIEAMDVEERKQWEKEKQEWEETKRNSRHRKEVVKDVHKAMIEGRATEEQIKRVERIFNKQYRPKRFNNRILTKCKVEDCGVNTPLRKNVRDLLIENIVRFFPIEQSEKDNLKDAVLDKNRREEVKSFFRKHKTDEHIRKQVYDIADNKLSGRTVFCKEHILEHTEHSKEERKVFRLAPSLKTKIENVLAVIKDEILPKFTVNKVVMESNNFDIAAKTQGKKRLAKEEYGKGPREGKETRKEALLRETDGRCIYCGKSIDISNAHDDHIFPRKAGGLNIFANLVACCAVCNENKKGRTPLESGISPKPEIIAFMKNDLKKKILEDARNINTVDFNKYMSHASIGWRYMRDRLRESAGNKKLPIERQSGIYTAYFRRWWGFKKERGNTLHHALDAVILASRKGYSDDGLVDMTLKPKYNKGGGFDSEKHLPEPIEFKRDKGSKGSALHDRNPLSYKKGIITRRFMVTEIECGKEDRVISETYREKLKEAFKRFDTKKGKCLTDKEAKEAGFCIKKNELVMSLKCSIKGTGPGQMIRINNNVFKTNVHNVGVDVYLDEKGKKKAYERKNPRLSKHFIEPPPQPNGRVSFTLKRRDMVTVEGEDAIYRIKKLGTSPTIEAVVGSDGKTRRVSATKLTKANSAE
Method: (§3) This Example describes indel assessment on mammalian targets using nuclease variants of Nuclease K comprising two or more substitutions identified as increasing indel activity in Example 8. 71 combination Nuclease K variants were tested.
(§4) Each Nuclease K variant and RNA guide (see Table 19) was cloned as described in Example 8. HEK293T cells were further transfected, followed by NGS analysis, as described in Example 8. For each target, indel ratios, referring to the percentage of NGS reads comprising indels, were calculated for the reference Nuclease K (SEQ ID NO: 65) and for each Nuclease K variant. The indel ratios shown in Table 20 were calculated as the average of two bioreplicates, each of which contained two technical replicates.

Nuclease K D582R/G42R = target: T4, Nuclease K D582R/G42R (D582R,G42R); experiment: cell_activity; PAM NGG; HEK293T; settings: tags: N- and C-terminal NLS
T4 chain: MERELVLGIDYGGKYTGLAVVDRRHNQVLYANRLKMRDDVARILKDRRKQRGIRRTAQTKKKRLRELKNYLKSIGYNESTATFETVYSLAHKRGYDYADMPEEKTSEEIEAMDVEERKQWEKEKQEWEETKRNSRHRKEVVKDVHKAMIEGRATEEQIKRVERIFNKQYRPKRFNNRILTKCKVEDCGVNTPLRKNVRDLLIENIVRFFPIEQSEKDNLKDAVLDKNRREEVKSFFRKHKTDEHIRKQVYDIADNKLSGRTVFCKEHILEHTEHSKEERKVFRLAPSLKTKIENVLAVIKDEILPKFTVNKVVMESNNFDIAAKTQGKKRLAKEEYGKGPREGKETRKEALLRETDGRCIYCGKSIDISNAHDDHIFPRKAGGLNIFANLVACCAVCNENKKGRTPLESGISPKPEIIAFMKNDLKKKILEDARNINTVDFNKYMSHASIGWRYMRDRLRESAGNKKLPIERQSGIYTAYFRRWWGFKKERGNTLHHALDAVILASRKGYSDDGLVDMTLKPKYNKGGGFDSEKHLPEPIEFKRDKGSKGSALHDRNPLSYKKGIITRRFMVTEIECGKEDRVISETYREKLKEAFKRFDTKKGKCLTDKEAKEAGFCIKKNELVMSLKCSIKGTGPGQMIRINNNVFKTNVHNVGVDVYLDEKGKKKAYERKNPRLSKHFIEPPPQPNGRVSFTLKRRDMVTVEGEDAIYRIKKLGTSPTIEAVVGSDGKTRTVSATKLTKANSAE
Method: as §3, §4

Nuclease K = target: T5, Nuclease K; experiment: cell_activity; PAM NGG (AGG); HEK293T; settings: tags: N-terminal SV40 NLS, C-terminal nucleoplasmin NLS
T5 chain: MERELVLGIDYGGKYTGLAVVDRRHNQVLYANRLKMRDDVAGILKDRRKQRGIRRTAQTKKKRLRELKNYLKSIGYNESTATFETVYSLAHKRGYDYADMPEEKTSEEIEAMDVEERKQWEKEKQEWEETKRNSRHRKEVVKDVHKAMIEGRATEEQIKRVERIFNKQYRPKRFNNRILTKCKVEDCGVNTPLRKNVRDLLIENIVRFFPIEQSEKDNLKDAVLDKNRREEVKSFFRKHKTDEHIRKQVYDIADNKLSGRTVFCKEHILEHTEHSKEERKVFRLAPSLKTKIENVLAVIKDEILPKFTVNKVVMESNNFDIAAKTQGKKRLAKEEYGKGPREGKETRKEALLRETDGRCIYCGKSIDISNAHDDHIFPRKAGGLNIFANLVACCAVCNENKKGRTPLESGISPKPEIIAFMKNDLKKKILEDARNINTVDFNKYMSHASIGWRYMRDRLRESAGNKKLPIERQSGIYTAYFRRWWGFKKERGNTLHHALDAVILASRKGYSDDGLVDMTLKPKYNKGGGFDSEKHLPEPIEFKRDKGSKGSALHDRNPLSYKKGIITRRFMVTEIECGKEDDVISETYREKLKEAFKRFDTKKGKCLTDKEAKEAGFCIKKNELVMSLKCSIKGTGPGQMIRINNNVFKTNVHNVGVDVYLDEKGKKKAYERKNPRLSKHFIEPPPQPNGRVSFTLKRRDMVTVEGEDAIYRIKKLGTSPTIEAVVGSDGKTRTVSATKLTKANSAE

B1: Nuclease A EMX1-T7 guide ; EMX1-T7 target (ssRNA ; dsDNA)
RNA: CUUUAGCAAGGGACUAUUCAGUUACAGUUAAGGCUCUUUGGAAACAAAGAAGCCUUAAUUGUAAAACGCCUAUAUGGUAAAGUGAUGUACGUUUGGGUAUAUAUCGCCAGCCUGAACCUCUACGCCAGAAAUGGCAGCUUUAUCAUGGGUUAGGACGAUAUUUAAAAAACUUUCUGCGGCUUGCUUACUUUAGUAAGCUUUGUGGCUGAGGCAGAAUUCCUU
DNA 1: CTTTAGCAAGGGACTATTCA
DNA 2: TGAATAGTCCCTTGCTAAAG
With B1 as the binder, how does the activity [1] read?
Its activity is 0.337 indel ratio.

What about the activity (Nuclease A) of the same binder?
Its activity is 0.033 indel ratio.

B2: Nuclease K VEGFA-T6 guide ; VEGFA-T6 target (ssRNA ; dsDNA)
RNA: UUUGCCCAUACUGGGGACCAGUUACAGUUAAGGCUCUGAAAAGAGCCUUAAUUGUAAAACGCCUAUACAGUGAAGGGAUAUACGCUUGGGUUUGUCCAGCCUGAGCCUCUAUGCCAGAAAUGGCGCCUUCAUCGUGGGUUAGGACAUUUAAAUUUAAAAACUAUUCAGCACUGUUUGCUCUUGUCAGCUUGGUGGCAGA
DNA 1: TTTGCCCATACTGGGGACCA
DNA 2: TGGTCCCCAGTATGGGCAAA
For B2, which activity [2] is on record?
The activity was 0.097 indel ratio.

And the activity (Nuclease K D582R/G42R)?
Its activity is 0.153 indel ratio.

What about the activity (Nuclease K) of the same binder?
Its activity is 0.009 indel ratio.
